Test results reported in US20130059772A1, “Use of Repeat Sequence Protein Polymers in Personal Care Compositions” (DANISCO US INC., priority 2003, published 2013).

Tests used:
[1] = test system: procollagen type I C-peptide; experiment: Procollagen assay (type I C-peptide ELISA of fibroblast culture media); assay type: cell-based, human; details: 48 hours, untreated 873 ± 111
Excerpt: Collagen is synthesized as part of a much larger procollagen peptide. As the peptide is processed to form a mature collagen protein, the propeptide portion is cleaved off (type I C-peptide). Both the mature collagen protein and the type I C-peptide fragment are then released into the extracellular environment and accumulate in the culture media. Since there is a 1:1 stoichiometric ratio between the two parts of the procollagen peptide, assaying for type I C-peptide will reflect the amount of collagen synthesized. Type 1 C-peptide can be assayed via an ELISA based method.
(§1) The test materials were tested in triplicate.
Takara procollagen type IC-peptide ELISA kits were used in these experiments. A series of type I C-peptide standards was prepared ranging from 40 ng/ml to 640 ng/ml. An ELISA microplate was then prepared by removing any unneeded strips from the plate frame. To each well in the plate 100 μl of peroxidase-labeled anti procollagen type I-C peptide was added, followed by 20 μA of either sample (tissue culture media) or standard. The microplate was covered and allowed to incubate for 3±0.25 hours at 37° C. After the incubation period, each well was aspirated and washed three times with 400 μl of wash buffer. After the last wash was removed, 100 μl of peroxidase substrate solution (hydrogen peroxide containing tetramethylbenzidine as a chromagen) were added to each well and the plate was incubated for 15±5 minutes at room temperature. After the incubation period, 100 μA of stop solution (1 N sulfuric acid) was added to each well and the plate was read using a microplate reader at 450 nm. To quantify the amount of procollagen present, a standard curve was generated using known concentrations of procollagen type 1-C peptide. […] Mean absorbance values for the test materials and untreated samples was then used to estimate the amount of procollagen type 1-C peptide present in each sample.

[2] = test system: MMP-1; experiment: MMP-1 assay (fluorometric ELISA of fibroblast culture media); assay type: cell-based, human; details: for MMP-1 Activity: 48 hours, untreated 0.11 ± 0.05; for effect on MMP-1 activity: summary in words
Method: MMP-1 is a zinc and calcium dependent endopeptidase that is produced and released from both dermal fibroblasts and keratinocytes, and functions to break down collagens located in the extracellular matrix. Active MMP-1 released into the culture media can be assayed using a fluorescence-based ELISA. […] To quantify the active MMP-1 a fluorogenic substrate linked to a quencher molecule is added and any active MMP-1 present will cleave the peptide linkage between the fluorophore and the quencher molecule. This cleavage will eliminate the quencher molecules ability to inhibit the fluorescent signal of the fluorophore allowing a fluorescent signal that will be proportional to the amount of active MMP-1 present.
as §1
R&D Products MMP-1 Fluorokine E fluorometric ELISA kits were used in these experiments. A series of MMP-1 standards was prepared ranging from 0.39 ng/ml to 25 ng/ml and an ELISA microplate was prepared by removing any unneeded strips from the plate frame. In each well, 200 μA of Assay Diluent RD1-64 and 50 μA of each sample were added. For the standards, 100 μl of Assay Diluent RD1-64 and 150 μl of each respective standard were added. The plate was incubated for 3±0.25 hours at room temperature on a rocking platform. At the end of the incubation period, each well was aspirated and then washed four times with 400 μl of wash buffer. […] After the incubation period, the plate was washed four times as described above. After the last wash, 200 μl of substrate solution were added to each well and the plate was incubated for 17-20 hours at 37±2° C. (protected from light). At the end of the incubation period, the fluorescence intensity was measured (excitation 320 nm, emission 405 nm) using a fluorometer using a 20 mS integration time. To quantify the amount of MMP-1 activity, a standard curve was generated using known activity levels of MMP-1. […] Mean absorbance values for the test materials and untreated samples were then used to estimate the amount of MMP-1 activity present in each sample.

[3] = test system: elastin; experiment: Elastin assay (Fastin colorimetric assay of culture media); assay type: cell-based, human; details: 48 hours, spent fibroblast media, untreated 69 ± 2
Method: Elastin is released by fibroblasts (soluble elastin) into the extracellular space where it is then cross-linked to other elastin proteins to form an extensive network of fibers and sheets (insoluble elastin). Soluble elastin can be readily measured from cell culture medium via a colorimetric assay.
as §1
In these experiments, the Biocolor Fastin Elastin Assay kits were used. A 50 μl aliquot of sample material (cell culture medium for soluble elastin) was mixed with 1.0 ml of cold Fastin Precipitating Reagent in a 1.5-ml microcentrifuge tube. In addition to the spent media samples from the fibroblasts, 50 μl aliquots of the test materials diluted into fresh culture media at the concentrations used in the study were also assayed for elastin content. The sample/Fastin Precipitating Reagent mixture was then incubated overnight in an ice water bath to precipitate the elastin. On the following day, the cold microcentrifuge tubes were spun at 10,000×g for 10 minutes to pack the precipitated elastin and the supernatant was removed via careful aspiration.
One (1) ml of Fastin Dye Reagent, along with 100 μl of 90% saturated ammonium sulphate was added to each tube. The microcentrifuge tubes were mixed with a vortex mixer and then allowed to incubate for at least 60 minutes at room temperature, with gentle mechanical agitation. The Fastin Dye Reagent interacts with unique amino acid sequences in the elastin protein. This elastin-dye complex precipitates in the presence of ammonium sulphate. After the incubation was over, the microcentrifuge tubes were spun at 10,000×g for 10 minutes to separate the precipitated elastin-dye complex from the unbound dye. The supernatant was carefully removed and the tubes were inverted to allow any residual supernatant to drain out.
To release the elastin-bound dye, 1.0 ml of Fastin Destain reagent was added to each microcentrifuge tube. The tubes were capped as quickly as possible, as this reagent contains ammonia and methanol. The tubes were then vortexed. The absorbance of this solution was measured by a plate reader at 490 nm (200 μl volume read).
An elastin standard curve was generated using 12.5, 25, and 50 μg aliquots of an Elastin Standard into microcentrifuge tubes (in duplicate). These samples were treated as described above (Elastin Assay) and the absorbance values were used to generate a standard curve of known concentrations. To derive the standard curve for the elastin assay, the absorbance was plotted against the elastin concentration in μg/ml for the standards. […] Mean absorbance values for the test materials and untreated samples were then used to estimate the amount of elastin present in each sample.

[4] = test system: Fibroblasts (HDFn Cell Line); experiment: Initial pilot cell viability dose response (MTT assay); details: for effect on the number of viable cells: initial dose response, summary in words; for cell viability, percent of untreated cells: 48 hours
Method: Initial screening was conducted to identify a test range suitable to determine the effect of a broad range of test material concentrations on cell viability. […] Cultured fibroblasts were exposed to the test materials for 48 hours and then changes in cell viability were determined using an MTT assay (i.e., a colorimetric analysis of the metabolic activity of the cultured cells, described in greater detail below).
The purple crystals are extracted from the cells with isopropanol and the amount of crystal formation quantified spectrophotometrically. […] A decrease in color intensity can be a sign of toxicity.
Fibroblasts (Cascade Biologics, HDFn Cell Line, lot#1C0914) were seeded into the individual wells of either a 96-well plate (for the initial pilot work to determine concentration effects on cell viability) in 100 μl of Fibroblast Growth Media (FGM) or in 12-well plates (for the measurement of collagen, elastin and MMP-1) in 1.0 ml of FGM and incubated overnight at 37±2° C. and 5±1% CO2. On the following day, the medium was removed via aspiration to eliminate any non-adherent cells and replaced with fresh FGM. The cells were grown until confluent, with a media change every 48 to 72 hours. Upon reaching confluency, the cells were treated for 24 hours with Dulbecco's Modified Essential Media (DMEM) supplemented with 1.5% FBS to wash out any effects from the growth factors included in the normal FGM. After this 24-hour wash out period, the cells were treated with the test materials at the specified concentrations dissolved in DMEM with 1.5% FBS. Untreated cells (negative controls) received DMEM with 1.5% FBS. The cells were incubated for 48 hours and at the end of the incubation period cell culture medium was either discarded (pilot work) or collected and stored frozen at −75° C. The test materials were tested in triplicate.
After the 2-day incubation, the cell culture medium was removed and the fibroblasts were washed twice with PBS to remove any remaining test material. After the final wash, either 100 μl (96-well plates) or 300 μl (12-well plates) of DMEM supplemented with 0.5 mg/ml MTT were added to each well and the cells were incubated for 1 hour at 37±2° C. and 5±1% CO2. After the incubation, the DMEM/MTT solution was removed and the cells were washed again once with PBS and then either 100 μl (96-well plates) or 1 ml (12-well plates) of isopropyl alcohol were added to each well to extract the purple formazin crystals. For the 12-well plates, two hundred microliters of the isopropyl extracts was transferred to a 96-well plate. The 96-well plates were read at 540 nm using isopropyl alcohol as a blank. The mean MTT absorbance value for the negative control cells was calculated and used to represent 100% value for cell viability. The individual MTT values from the cells undergoing the various treatments were then divided by the mean value for the negative control cells and expressed as a percent, to determine the change in cell viability caused by each treatment.

[5] = test system: cultured dermal fibroblasts; experiment: UVB protection, initial MTT assay (material applied after UVB); details: 0.14%, −UVB condition
Method: In these experiments, the test material was tested at six concentrations with two duplicate sets of cells prepared. […] Changes in cell viability were then determined 48 hours post material application via an MTT assay, as described above.
Fibroblasts were seeded into the individual wells of a 96 well plate in 100 μl FGM, and incubated overnight at 37±2° C. and 5±1% CO2. On the following day, the media were removed via aspiration to eliminate any non-adherent cells and replaced with 100 μl of fresh FGM. The cells were grown until confluent, with a media change every 48 to 72 hours.
An UVLM-26 lamp was used as the source of UVB light. UV light intensity was measured using a UVX radiometer coupled to a UVB sensor probe (UV Products) to determine the time required to deliver an approximate dose of 50 mj/cm^2. Prior to UVB exposure, the FGM was replaced with 100 μl PBS. After exposure, the PBS was removed and replaced with FGM supplemented with either the test materials, 20 μM Trolox, or left unsupplemented. A duplicate set of cells was also prepared and treated as described above, with the exception that they were not exposed to UVB light. […] The cells were allowed to incubate with the test materials for 48 hours, and then changes in cell viability were determined via an MTT assay. […]
After the 48-hour incubation, the cell culture medium was removed and the fibroblasts were washed with PBS to remove any remaining test material. […] The 96-well plate was then read at 540 nm using isopropyl alcohol as a blank.
The mean MTT absorbance value for the negative control cells (non-UVB exposed and non test material treated cells) was calculated and used to represent 100% value for cell number. The individual MTT values from the cells undergoing the various treatments was then divided by the mean value for the negative control cells and expressed as a percent, to determine the change in cell viability caused by each treatment. MTT scores for each treatment are expressed as means±the standard deviation of the mean.

B1: GC2596-26-E: collagen-like repeat sequence protein polymer, head-[(GAHGPAGPK)2(GAQGPAGPG)24(GAHGPAGPK)2]4-tail; SEQ ID NO:34 (Example 5) (protein)
chain: MDPVVLQRRDWENPGVTQLNRLAAHPPFASDPMGAHGPAGPKGAHGPAGPKGAQGPAGPGGAQGPAGPGGAQGPAGPGGAQGPAGPGGAQGPAGPGGAQGPAGPGGAQGPAGPGGAQGPAGPGGAQGPAGPGGAQGPAGPGGAQGPAGPGGAQGPAGPGGAQGPAGPGGAQGPAGPGGAQGPAGPGGAQGPAGPGGAQGPAGPGGAQGPAGPGGAQGPAGPGGAQGPAGPGGAQGPAGPGGAQGPAGPGGAQGPAGPGGAQGPAGPGGAHGPAGPKGAHGPAGPKGAHGPAGPKGAHGPAGPKGAQGPAGPGGAQGPAGPGGAQGPAGPGGAQGPAGPGGAQGPAGPGGAQGPAGPGGAQGPAGPGGAQGPAGPGGAQGPAGPGGAQGPAGPGGAQGPAGPGGAQGPAGPGGAQGPAGPGGAQGPAGPGGAQGPAGPGGAQGPAGPGGAQGPAGPGGAQGPAGPGGAQGPAGPGGAQGPAGPGGAQGPAGPGGAQGPAGPGGAQGPAGPGGAQGPAGPGGAHGPAGPKGAHGPAGPKGAHGPAGPKGAHGPAGPKGAQGPAGPGGAQGPAGPGGAQGPAGPGGAQGPAGPGGAQGPAGPGGAQGPAGPGGAQGPAGPGGAQGPAGPGGAQGPAGPGGAQGPAGPGGAQGPAGPGGAQGPAGPGGAQGPAGPGGAQGPAGPGGAQGPAGPGGAQGPAGPGGAQGPAGPGGAQGPAGPGGAQGPAGPGGAQGPAGPGGAQGPAGPGGAQGPAGPGGAQGPAGPGGAQGPAGPGGAHGPAGPKGAHGPAGPKGAHGPAGPKGAHGPAGPKGAQGPAGPGGAQGPAGPGGAQGPAGPGGAQGPAGPGGAQGPAGPGGAQGPAGPGGAQGPAGPGGAQGPAGPGGAQGPAGPGGAQGPAGPGGAQGPAGPGGAQGPAGPGGAQGPAGPGGAQGPAGPGGAQGPAGPGGAQGPAGPGGAQGPAGPGGAQGPAGPGGAQGPAGPGGAQGPAGPGGAQGPAGPGGAQGPAGPGGAQGPAGPGGAQGPAGPGGAHGPAGPKGAHGPAGPKMDPGRYQLSAGRYHYQLVWCQK
modifications: silk-elastin repeat sequence protein copolymer
Type-1 C Peptide ([1]; 0.001%): 838 ± 75 ng/mL | Type-1 C Peptide ([1]; 0.005%): 1162 ± 194 ng/mL | Type-1 C Peptide ([1]; 0.01%): 956 ± 110 ng/mL | MMP-1 Activity ([2]; 0.001%): 0.04 ± 0.05 ng/mL | MMP-1 Activity ([2]; 0.005%): -0.01 ± 0.02 ng/mL | MMP-1 Activity ([2]; 0.01%): 0.00 ± 0.02 ng/mL | effect on MMP-1 activity [2]: almost complete loss of detectable MMP-1 activity | Elastin ([3]; 0.001%): 63 ± 10 μg/ml media | Elastin ([3]; 0.005%): 59 ± 5 μg/ml media | Elastin ([3]; 0.01%): 50 ± 18 μg/ml media | effect on the number of viable cells [4]: reduce the number of viable cells

B2: GC2596-26-D: SELP47K modified with two units of ALSYP (SEQ ID NO:36) peptides in each SELP47K unit; SEQ ID NO:32 (Example 4) (protein)
chain: MDPVVLQRRDWENPGVTQLNRLAAHPPFASDPMGAGAGSGAGAGSALSYPGVGVPGVGVPGVGVPGVGVPGKGVPGVGVPGVGVPGVGVPALSYPGAGAGSGAGAGSGAGAGSGAGAGSALSYPGVGVPGVGVPGVGVPGVGVPGKGVPGVGVPGVGVPGVGVPALSYPGAGAGSGAGAGSGAGAGSGAGAGSALSYPGVGVPGVGVPGVGVPGVGVPGKGVPGVGVPGVGVPGVGVPALSYPGAGAGSGAGAGSGAGAGSGAGAGSALSYPGVGVPGVGVPGVGVPGVGVPGKGVPGVGVPGVGVPGVGVPALSYPGAGAGSGAGAGSGAGAGSGAGAGSALSYPGVGVPGVGVPGVGVPGVGVPGKGVPGVGVPGVGVPGVGVPALSYPGAGAGSGAGAGSGAGAGSGAGAGSALSYPGVGVPGVGVPGVGVPGVGVPGKGVPGVGVPGVGVPGVGVPALSYPGAGAGSGAGAGSGAGAGSGAGAGSALSYPGVGVPGVGVPGVGVPGVGVPGKGVPGVGVPGVGVPGVGVPALSYPGAGAGSGAGAGSGAGAGSGAGAGSALSYPGVGVPGVGVPGVGVPGVGVPGKGVPGVGVPGVGVPGVGVPALSYPGAGAGSGAGAGSGAGAGSGAGAGSALSYPGVGVPGVGVPGVGVPGVGVPGKGVPGVGVPGVGVPGVGVPALSYPGAGAGSGAGAGSGAGAGSGAGAGSALSYPGVGVPGVGVPGVGVPGVGVPGKGVPGVGVPGVGVPGVGVPALSYPGAGAGSGAGAGSGAGAGSGAGAGSALSYPGVGVPGVGVPGVGVPGVGVPGKGVPGVGVPGVGVPGVGVPALSYPGAGAGSGAGAGSGAGAGSGAGAGSALSYPGVGVPGVGVPGVGVPGVGVPGKGVPGVGVPGVGVPGVGVPALSYPGAGAGSGAGAGSGAGAGSGAGAGSALSYPGVGVPGVGVPGVGVPGVGVPGKGVPGVGVPGVGVPGVGVPALSYPGAGAGSGAGAGSGAGAMDPGRYQDLRSHHHHHH
modifications: SELP 47K-P4
Type-1 C Peptide ([1]; 0.0014%): 894 ± 156 ng/mL | Type-1 C Peptide ([1]; 0.007%): 908 ± 94 ng/mL | Type-1 C Peptide ([1]; 0.014%): 829 ± 171 ng/mL | MMP-1 Activity ([2]; 0.0014%): -0.01 ± 0.01 ng/mL | MMP-1 Activity ([2]; 0.007%): -0.02 ± 0.02 ng/mL | MMP-1 Activity ([2]; 0.014%): -0.03 ± 0.01 ng/mL | effect on MMP-1 activity [2]: almost complete loss of detectable MMP-1 activity | Elastin ([3]; 0.0014%): 72 ± 12 μg/ml media | Elastin ([3]; 0.007%): 69 ± 4 μg/ml media | Elastin ([3]; 0.014%): 68 ± 10 μg/ml media | cell viability, percent of untreated cells ([4]; 0.0014%): 130 ± 15% | cell viability, percent of untreated cells ([4]; 0.007%): 138 ± 9% | cell viability, percent of untreated cells ([4]; 0.014%): 145 ± 12% | cell viability, percent of untreated cells ([4]; 0.07%): 145 ± 11% | cell viability, percent of untreated cells ([4]; 0.14%): 154 ± 24% | effect on the number of viable cells [4]: strongly stimulate increases in the number of viable cells | number of viable cells greater than −UVB untreated cells [5]: 54%
